The values that follow come from PMC3488246.

In one data set the target is T1, PALB2Δ1-40 (UniProt Q86YC2 41-1186, del1-40).
T1 sequence: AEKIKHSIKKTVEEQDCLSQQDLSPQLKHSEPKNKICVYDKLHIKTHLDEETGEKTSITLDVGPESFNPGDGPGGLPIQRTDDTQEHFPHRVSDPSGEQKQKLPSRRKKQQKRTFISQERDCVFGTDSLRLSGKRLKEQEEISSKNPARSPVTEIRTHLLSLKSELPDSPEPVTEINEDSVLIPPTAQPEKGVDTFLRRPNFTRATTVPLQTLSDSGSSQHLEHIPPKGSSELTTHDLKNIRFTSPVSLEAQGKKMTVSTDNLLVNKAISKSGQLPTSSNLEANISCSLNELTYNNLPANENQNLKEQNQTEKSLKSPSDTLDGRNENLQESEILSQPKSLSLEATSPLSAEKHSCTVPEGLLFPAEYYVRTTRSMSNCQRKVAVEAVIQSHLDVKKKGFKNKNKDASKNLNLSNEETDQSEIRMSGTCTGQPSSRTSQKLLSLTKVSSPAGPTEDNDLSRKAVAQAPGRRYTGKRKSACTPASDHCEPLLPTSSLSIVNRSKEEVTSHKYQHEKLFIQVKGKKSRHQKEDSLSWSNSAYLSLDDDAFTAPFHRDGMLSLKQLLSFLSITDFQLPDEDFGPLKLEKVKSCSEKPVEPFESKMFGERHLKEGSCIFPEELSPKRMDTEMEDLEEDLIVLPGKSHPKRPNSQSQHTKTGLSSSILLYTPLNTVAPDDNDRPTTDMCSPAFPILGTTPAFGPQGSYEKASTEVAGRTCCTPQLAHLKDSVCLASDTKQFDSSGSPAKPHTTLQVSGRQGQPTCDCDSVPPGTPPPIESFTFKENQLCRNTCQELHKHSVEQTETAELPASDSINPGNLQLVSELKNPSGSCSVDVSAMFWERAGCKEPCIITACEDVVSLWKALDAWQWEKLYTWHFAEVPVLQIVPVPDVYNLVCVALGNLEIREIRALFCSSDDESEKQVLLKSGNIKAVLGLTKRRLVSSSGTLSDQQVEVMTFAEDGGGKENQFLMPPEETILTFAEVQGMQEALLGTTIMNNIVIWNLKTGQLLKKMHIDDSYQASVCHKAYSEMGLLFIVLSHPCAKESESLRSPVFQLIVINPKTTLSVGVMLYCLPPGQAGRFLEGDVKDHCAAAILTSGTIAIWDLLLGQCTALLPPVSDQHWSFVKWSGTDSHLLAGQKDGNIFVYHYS
As to the kind of experiment: EMSA.

Another data set has as its target T2, PALB2 (UniProt Q86YC2 1-1186).
T2 sequence: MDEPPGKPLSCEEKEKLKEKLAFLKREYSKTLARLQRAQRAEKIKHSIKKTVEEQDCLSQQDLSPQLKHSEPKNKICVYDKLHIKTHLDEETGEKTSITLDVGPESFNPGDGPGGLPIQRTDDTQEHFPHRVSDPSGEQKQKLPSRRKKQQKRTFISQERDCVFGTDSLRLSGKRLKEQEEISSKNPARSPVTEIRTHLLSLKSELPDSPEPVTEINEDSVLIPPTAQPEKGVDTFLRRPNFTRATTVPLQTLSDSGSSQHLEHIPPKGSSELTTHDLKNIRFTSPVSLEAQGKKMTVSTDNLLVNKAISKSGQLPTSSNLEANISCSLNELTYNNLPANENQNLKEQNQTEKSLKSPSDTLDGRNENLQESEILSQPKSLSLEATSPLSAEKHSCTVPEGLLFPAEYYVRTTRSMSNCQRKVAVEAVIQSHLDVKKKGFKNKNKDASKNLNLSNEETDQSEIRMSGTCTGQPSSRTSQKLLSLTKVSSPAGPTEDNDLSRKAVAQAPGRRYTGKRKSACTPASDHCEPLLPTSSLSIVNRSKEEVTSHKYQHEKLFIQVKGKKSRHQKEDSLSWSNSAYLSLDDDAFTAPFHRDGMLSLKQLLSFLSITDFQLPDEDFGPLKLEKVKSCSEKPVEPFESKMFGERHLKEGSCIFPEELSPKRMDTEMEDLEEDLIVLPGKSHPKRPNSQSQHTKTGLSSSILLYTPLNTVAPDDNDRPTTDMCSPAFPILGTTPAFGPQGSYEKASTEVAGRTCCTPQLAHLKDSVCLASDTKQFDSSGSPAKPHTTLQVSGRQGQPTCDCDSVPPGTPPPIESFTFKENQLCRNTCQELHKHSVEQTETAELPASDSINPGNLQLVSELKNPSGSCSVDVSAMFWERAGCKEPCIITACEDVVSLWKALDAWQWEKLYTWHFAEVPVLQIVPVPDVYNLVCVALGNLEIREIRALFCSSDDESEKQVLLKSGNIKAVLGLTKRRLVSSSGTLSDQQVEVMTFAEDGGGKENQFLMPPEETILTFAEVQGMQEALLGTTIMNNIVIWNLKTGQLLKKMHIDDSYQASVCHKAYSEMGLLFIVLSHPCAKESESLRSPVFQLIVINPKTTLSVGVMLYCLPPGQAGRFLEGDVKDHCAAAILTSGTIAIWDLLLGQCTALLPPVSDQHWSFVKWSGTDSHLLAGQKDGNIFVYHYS
As to the kind of experiment: EMSA.

B1: 60 nt ssDNA (ssDNA)
DNA: GGGTGAACCTGCAGGTGGGCAAAGATGTCCTAGCAATGTAATCGTCAAGCTTTATGCCGT
On to B1, for which the binding signal with PALB2Δ1-40 is ~5 fold stronger affinity than PALB2. Also, the binding result with PALB2 is “binds”.
